The values that follow come from patent US20220372147A1 (UNIVERSIT T STUTTGART, published 2022).

The target in assay [1] is T1, HER3-Fc fusion protein, extracellular domain (ECD) of HER3 (aa 21-643) fused to an Fc part (UniProt P21860 21-643).
T1 construct: range 21-643; not shown: Fc part
Put plainly: ELISA, immobilized HER3-Fc, anti-His-HRP detection. In general terms: ELISA stands for enzyme-linked immunosorbent assay.

The target in assay [2] is T2, His-tagged HER3 protein, extracellular domain (ECD) of HER3 (aa 21-643) (UniProt P21860 21-643).
T2 construct: range 21-643; also called HER3-His; not shown: His-tag
Put plainly: ELISA, immobilized HER3-His, anti-human Fc-HRP detection.

The target in assay [3] is T3, HER3 on HER3-expressing cancer cells (LIM1215, BT474) (UniProt P21860 20-1342, limits assumed). Put plainly: cell-based or functional assay.
For assay [4], the target named is T4, CD3 on CD3-expressing Jurkat cells (human, UniProt P07766 23-207).
T4 construct: whole, on cells
Put plainly: flow cytometry on CD3-expressing Jurkat cells, PE anti-human Fc.

In assay [5] the target is T3, HER3 on HER3-expressing cancer cells …. The experiment in a line: flow cytometry on HER3-expressing BT474 cells, PE anti-human Fc. For orientation: Flow cytometry measures light scatter and fluorescence of single cells or particles in a stream.
Assay [6] shares this target. Put plainly: flow cytometry on HER3-expressing LIM1215 cells, PE anti-human Fc.
The target in assay [7] is T5, MET Fc fusion protein, extracellular domain (ECD) of MET (aa 25-787) (UniProt P08581 25-787).
T5 construct: range 25-787; not shown: Fc part
The experiment in a line: ELISA, immobilized MET-Fc, anti-human Fab-HRP detection.

T4 sequence (P07766 23-207): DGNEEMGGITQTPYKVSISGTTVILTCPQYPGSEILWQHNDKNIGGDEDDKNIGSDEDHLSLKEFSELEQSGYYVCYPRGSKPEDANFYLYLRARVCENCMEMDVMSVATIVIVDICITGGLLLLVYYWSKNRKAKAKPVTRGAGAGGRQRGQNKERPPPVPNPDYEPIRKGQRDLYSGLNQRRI
T5 sequence (P08581 25-787 limits assumed): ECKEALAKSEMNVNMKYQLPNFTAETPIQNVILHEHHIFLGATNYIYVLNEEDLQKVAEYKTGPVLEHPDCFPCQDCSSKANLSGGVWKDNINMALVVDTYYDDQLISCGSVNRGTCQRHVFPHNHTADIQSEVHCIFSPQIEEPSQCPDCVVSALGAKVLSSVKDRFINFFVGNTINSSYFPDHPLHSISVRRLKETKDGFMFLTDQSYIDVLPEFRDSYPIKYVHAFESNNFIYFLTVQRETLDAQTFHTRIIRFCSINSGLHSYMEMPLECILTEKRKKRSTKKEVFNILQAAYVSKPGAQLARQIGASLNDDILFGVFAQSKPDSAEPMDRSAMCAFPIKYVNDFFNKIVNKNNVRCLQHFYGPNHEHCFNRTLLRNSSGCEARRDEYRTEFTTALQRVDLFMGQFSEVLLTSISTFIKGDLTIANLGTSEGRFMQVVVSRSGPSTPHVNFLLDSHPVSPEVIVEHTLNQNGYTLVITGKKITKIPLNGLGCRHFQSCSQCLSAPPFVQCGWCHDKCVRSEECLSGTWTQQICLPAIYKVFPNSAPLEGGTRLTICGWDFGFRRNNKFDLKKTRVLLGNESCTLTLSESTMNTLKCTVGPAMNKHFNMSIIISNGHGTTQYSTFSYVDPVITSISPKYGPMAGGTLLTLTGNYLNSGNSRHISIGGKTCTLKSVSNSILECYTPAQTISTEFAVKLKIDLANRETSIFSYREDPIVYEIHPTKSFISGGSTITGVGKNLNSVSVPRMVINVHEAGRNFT

B1: Fv3-43-hetEHD2 eFab molecule 8 (C102T Fd; C14T,N39Q light chain) (Fab, V domains shown)
VH: QVQLQQSGPGLVKPSQTLSLTCAISGDSVSSNRAAWNWIRQSPSRGLEWLGRTYYRSKWYNDYAQSLKSRITINPDTPKNQFSLQLNSVTPEDTAVYYCARDGQLGLDALDIWGQGTMVTVSS
VL: QAGLTQPPAVSVAPGQTASITCGRDNIGSRSVHWYQQKPGQAPVLVVYDDSDRPAGIPERFSGSNYENTATLTISRVEAGDEADYYCQVWGITSDHVVFGGGTKLTVLD
notes: Monovalent anti-HER3 Fab-like molecule; His-tag on the Fd chain
As to B1, a half-maximal response in assay [1] (EC50) required 6.2 nM.

B2: bivalent and monospecific eIg molecule targeting HER3 (antibody, V domains shown)
VH: QVQLQQSGPGLVKPSQTLSLTCAISGDSVSSNRAAWNWIRQSPSRGLEWLGRTYYRSKWYNDYAQSLKSRITINPDTPKNQFSLQLNSVTPEDTAVYYCARDGQLGLDALDIWGQGTMVTVSS
VL: QAGLTQPPAVSVAPGQTASITCGRDNIGSRSVHWYQQKPGQAPVLVVYDDSDRPAGIPERFSGSNYENTATLTISRVEAGDEADYYCQVWGITSDHVVFGGGTKLTVLG
notes: Homodimerizing Fc; also called monospecific, bivalent eIg antibody; anti-HER3 bivalent eIg
In assay [2], B2 had an EC50 of 1.4 nM.

B3: Fv3-43-hetEHD2 eFab molecule 1 (C102A Fd; C14A,N39Q light chain) (Fab, V domains shown)
VH: QVQLQQSGPGLVKPSQTLSLTCAISGDSVSSNRAAWNWIRQSPSRGLEWLGRTYYRSKWYNDYAQSLKSRITINPDTPKNQFSLQLNSVTPEDTAVYYCARDGQLGLDALDIWGQGTMVTVSS
VL: QAGLTQPPAVSVAPGQTASITCGRDNIGSRSVHWYQQKPGQAPVLVVYDDSDRPAGIPERFSGSNYENTATLTISRVEAGDEADYYCQVWGITSDHVVFGGGTKLTVLD
notes: Monovalent anti-HER3 Fab-like molecule; His-tag on the Fd chain; also called C14A,N39Q:N39,C102A
Consider B3, for which the 50% effective concentration (EC50) in assay [1] is 12.1 nM.

B4: Fv3-43-hetEHD2 eFab molecule 5 (C102A Fd; C14W,N39Q light chain) (Fab, V domains shown)
VH: QVQLQQSGPGLVKPSQTLSLTCAISGDSVSSNRAAWNWIRQSPSRGLEWLGRTYYRSKWYNDYAQSLKSRITINPDTPKNQFSLQLNSVTPEDTAVYYCARDGQLGLDALDIWGQGTMVTVSS
VL: QAGLTQPPAVSVAPGQTASITCGRDNIGSRSVHWYQQKPGQAPVLVVYDDSDRPAGIPERFSGSNYENTATLTISRVEAGDEADYYCQVWGITSDHVVFGGGTKLTVLD
notes: as for B1
In turn, B4 returned an EC50 in assay [1] of 11 nM.

B5: Fv3-43-hetEHD2 eFab molecule 2 (C102W Fd; C14T,N39Q light chain) (Fab, V domains shown)
VH: QVQLQQSGPGLVKPSQTLSLTCAISGDSVSSNRAAWNWIRQSPSRGLEWLGRTYYRSKWYNDYAQSLKSRITINPDTPKNQFSLQLNSVTPEDTAVYYCARDGQLGLDALDIWGQGTMVTVSS
VL: QAGLTQPPAVSVAPGQTASITCGRDNIGSRSVHWYQQKPGQAPVLVVYDDSDRPAGIPERFSGSNYENTATLTISRVEAGDEADYYCQVWGITSDHVVFGGGTKLTVLD
notes: as for B1
In assay [1], B5 displayed an EC50 of 7.3 nM.

B6: Fv3-43-hetEHD2 eFab molecule 6 (C102N Fd; C14T,N39Q light chain) (Fab, V domains shown)
VH: QVQLQQSGPGLVKPSQTLSLTCAISGDSVSSNRAAWNWIRQSPSRGLEWLGRTYYRSKWYNDYAQSLKSRITINPDTPKNQFSLQLNSVTPEDTAVYYCARDGQLGLDALDIWGQGTMVTVSS
VL: QAGLTQPPAVSVAPGQTASITCGRDNIGSRSVHWYQQKPGQAPVLVVYDDSDRPAGIPERFSGSNYENTATLTISRVEAGDEADYYCQVWGITSDHVVFGGGTKLTVLD
notes: Monovalent anti-HER3 Fab-like molecule; His-tag on the Fd chain; also called C14T,N39Q:N39,C102N
For the molecule B6, the EC50 in assay [1] amounted to 4.1 nM.

B7: Fv3-43-hetEHD2 eFab molecule 4 (C102T Fd; C14N,N39Q light chain) (Fab, V domains shown)
VH: QVQLQQSGPGLVKPSQTLSLTCAISGDSVSSNRAAWNWIRQSPSRGLEWLGRTYYRSKWYNDYAQSLKSRITINPDTPKNQFSLQLNSVTPEDTAVYYCARDGQLGLDALDIWGQGTMVTVSS
VL: QAGLTQPPAVSVAPGQTASITCGRDNIGSRSVHWYQQKPGQAPVLVVYDDSDRPAGIPERFSGSNYENTATLTISRVEAGDEADYYCQVWGITSDHVVFGGGTKLTVLD
notes: Monovalent anti-HER3 Fab-like molecule; His-tag on the Fd chain; also called C14N,N39Q:N39,C102T
With B7, a half-maximal response in assay [1] (EC50) required 3 nM.

B8: Fv3-43-hetEHD2 eFab molecule 7 (C102T Fd; C14W,N39Q light chain) (Fab, V domains shown)
VH: QVQLQQSGPGLVKPSQTLSLTCAISGDSVSSNRAAWNWIRQSPSRGLEWLGRTYYRSKWYNDYAQSLKSRITINPDTPKNQFSLQLNSVTPEDTAVYYCARDGQLGLDALDIWGQGTMVTVSS
VL: QAGLTQPPAVSVAPGQTASITCGRDNIGSRSVHWYQQKPGQAPVLVVYDDSDRPAGIPERFSGSNYENTATLTISRVEAGDEADYYCQVWGITSDHVVFGGGTKLTVLD
notes: as for B1
For B8, in assay [1], the response was half-maximal at 7.1 nM (EC50).

B9: Fv3-43-hetEHD2 eFab molecule 3 (C102N Fd; C14A,N39Q light chain) (Fab, V domains shown)
VH: QVQLQQSGPGLVKPSQTLSLTCAISGDSVSSNRAAWNWIRQSPSRGLEWLGRTYYRSKWYNDYAQSLKSRITINPDTPKNQFSLQLNSVTPEDTAVYYCARDGQLGLDALDIWGQGTMVTVSS
VL: QAGLTQPPAVSVAPGQTASITCGRDNIGSRSVHWYQQKPGQAPVLVVYDDSDRPAGIPERFSGSNYENTATLTISRVEAGDEADYYCQVWGITSDHVVFGGGTKLTVLD
notes: Monovalent anti-HER3 Fab-like molecule; His-tag on the Fd chain; also called C14A,N39Q:N39,C102N
As to B9, a half-maximal response in assay [1] (EC50) required 4.8 nM.

B10: Fv3-43-hetEHD2 eFab molecule 9 (C102S Fd; C14S,N39Q light chain) (Fab, V domains shown)
VH: QVQLQQSGPGLVKPSQTLSLTCAISGDSVSSNRAAWNWIRQSPSRGLEWLGRTYYRSKWYNDYAQSLKSRITINPDTPKNQFSLQLNSVTPEDTAVYYCARDGQLGLDALDIWGQGTMVTVSS
VL: QAGLTQPPAVSVAPGQTASITCGRDNIGSRSVHWYQQKPGQAPVLVVYDDSDRPAGIPERFSGSNYENTATLTISRVEAGDEADYYCQVWGITSDHVVFGGGTKLTVLD
notes: N-glycan only on the Fd EHD2-2 domain; also called originally used eFab (C14S,N39Q:N39,C102S)
Consider B10, for which the EC50 in assay [1] came to 3.7 nM.

B11: bispecific, trivalent eIg-Fab4 targeting HER3 and CD3 (bispecific antibody)
light 1: QAGLTQPPAVSVAPGQTASITCGRDNIGSRSVHWYQQKPGQAPVLVVYDDSDRPAGIPERFSGSNYENTATLTISRVEAGDEADYYCQVWGITSDHVVFGGGTKLTVLGQPKAAPSVTLFPPSSEELQANKATLVCLISDFYPGAVTVAWKADSSPVKAGVETTTPSKQSNNKYAASSYLSLTPEQWKSHRSYSCQVTHEGSTVEKTVAPTECS
heavy 1: not shown
light 2: not shown
heavy 2: QVQLQQSGPGLVKPSQTLSLTCAISGDSVSSNRAAWNWIRQSPSRGLEWLGRTYYRSKWYNDYAQSLKSRITINPDTPKNQFSLQLNSVTPEDTAVYYCARDGQLGLDALDIWGQGTMVTVSSASTKGPSVFPLAPSSKSTSGGTAALGCLVKDYFPEPVTVSWNSGALTSGVHTFPAVLQSSGLYSLSSVVTVPSSSLGTQTYICNVNHKPSNTKVDKKVEPKSCGGSGGGGSGGQVQLVQSGAEVKKPGSSVKVSCKASGGTFSGYTMNWVRQAPGQGLEWMGLINPYKGVSTYNGKFKDRVTITADKSTSTAYMELSSLRSEDTAVYYCARSGYYGDSDWYFDVWGQGTLVTVSSDFTPPTVKILQSSCDGGGHFPPTIQLLCLVSGYTPGTINITWLEDGQVMDVDLSTASTTQEGELASTQSELTLSQKHWLSDRTYTCQVTYQGHTFEDSTKKSADSNGTDKTHTCPPCPAPPVAGPSVFLFPPKPKDTLMISRTPEVTCVVVDVSHEDPEVKFNWYVDGVEVHNAKTKPREEQYNSTYRVVSVLTVLHQDWLNGKEYKCKVSNKGLPSSIEKTISKAKGQPREPQVCTLPPSRDELTKNQVSLSCAVKGFYPSDIAVEWESNGQPENNYKTTPPVLDSDGSFFLVSKLTVDKSRWQQGNVFSCSVMHEALHNHYTQKSLSLSPGK
B11: the “EC50 value in cell killing (PBMC-mediated cytotoxicity on BT-474 cells, crystal violet)” value in assay [3] was determined as 0.2 nM. In assay [3], the “EC50 value in cell killing (PBMC-mediated cytotoxicity on LIM1215 cells, crystal violet)” value was found to be 0.1 nM. The EC50 amounted to 5.9 nM in assay [4], 0.6 nM in assay [5] and 0.21 nM in assay [6].

B12: bispecific bivalent anti-cMET x anti-HER3 eIgG1 (EHD2 configuration HC1-LC2) (bispecific antibody)
light 1: QAGLTQPPAVSVAPGQTASITCGRDNIGSRSVHWYQQKPGQAPVLVVYDDSDRPAGIPERFSGSNYENTATLTISRVEAGDEADYYCQVWGITSDHVVFGGGTKLTVLGQPKAAPSVTLFPPSSEELQANKATLVCLISDFYPGAVTVAWKADSSPVKAGVETTTPSKQSNNKYAASSYLSLTPEQWKSHRSYSCQVTHEGSTVEKTVAPTECS
heavy 1: not shown
heavy 2: not shown
light 2: DIQMTQSPSSLSASVGDRVTITCKSSQSLLYTSSQKNYLAWYQQKPGKAPKLLIYWASTRESGVPSRFSGSGSGTDFTLTISSLQPEDFATYYCQQYYAYPWTFGQGTKVEIKRTDFTPPTVKILQSSCDGGGHFPPTIQLLCLVSGYTPGTINITWLEDGQVMDVDLSTASTTQEGELASTQSELTLSQKHWLSDRTYTCQVTYQGHTFEDSTKKSADSN
notes: Four different polypeptide chains, knob-into-hole Fc
Take B12: the results for the concentration for a half-maximal effect (EC50) in assay [7] and in assay [2] were 3.8 nM and 1 nM, respectively.

B13: bispecific, trivalent eIg-Fab2 targeting HER3 and CD3 (bispecific antibody)
light 1: QAGLTQPPAVSVAPGQTASITCGRDNIGSRSVHWYQQKPGQAPVLVVYDDSDRPAGIPERFSGSNYENTATLTISRVEAGDEADYYCQVWGITSDHVVFGGGTKLTVLGQPKAAPSVTLFPPSSEELQANKATLVCLISDFYPGAVTVAWKADSSPVKAGVETTTPSKQSNNKYAASSYLSLTPEQWKSHRSYSCQVTHEGSTVEKTVAPTECS
light 2: not shown
heavy 1: not shown
heavy 2: not shown
With B13, the 50% effective concentration (EC50) in assay [4] was 0.2 nM; in assay [5], 1.7 nM; in assay [6] it was 1.3 nM.

B14: bispecific bivalent anti-cMET x anti-HER3 eIgG2 (EHD2 configuration HC2-LC1) (bispecific antibody)
light 1: QAGLTQPPAVSVAPGQTASITCGRDNIGSRSVHWYQQKPGQAPVLVVYDDSDRPAGIPERFSGSNYENTATLTISRVEAGDEADYYCQVWGITSDHVVFGGGTKLTVLGQPKAAPSVTLFPPSSEELQANKATLVCLISDFYPGAVTVAWKADSSPVKAGVETTTPSKQSNNKYAASSYLSLTPEQWKSHRSYSCQVTHEGSTVEKTVAPTECS
heavy 1: not shown
heavy 2: not shown
light 2: DIQMTQSPSSLSASVGDRVTITCKSSQSLLYTSSQKNYLAWYQQKPGKAPKLLIYWASTRESGVPSRFSGSGSGTDFTLTISSLQPEDFATYYCQQYYAYPWTFGQGTKVEIKRTDFTPPTVKILQSSSDGGGHFPPTIQLLCLVSGYTPGTIQITWLEDGQVMDVDLSTASTTQEGELASTQSELTLSQKHWLSDRTYTCQVTYQGHTFEDSTKKCADSN
notes: as for B12
B14: the values for the concentration giving a half-maximal response (EC50) in assay [7] and in assay [2] were 5.4 nM and 1.4 nM, respectively.

One may read the EC50 as the concentration needed to bring the measured effect to its halfway point.
